Laboratory results taken from the DeepSol protein solubility set.

Test: soluble on expression in E. coli; label from the status in PepcDB or PDB records

**Q.** With “MKSFIKIHKQDNVLLALRYIQKGERLHAYGVSIEVKDDIKRGHKIALQSIKENDSIVKYGFPIGHASQDISIGEHIHVHNTKTNLSDIQLYSYTPRFDENPYSNENRTFKGFRRENGDAGVRNELWIVPTVGCVNGIAEKMLQRFVRETGDIAPFDNVLVLKHQYGCSQLGDDHENTKQILLNAIRHPNAGGVLVLGLGCENNELARMKEALQDVNLKRVKFLESQSVTDEMEAGVALLKEIHEAAKGDKREDIPLSELKIGLKCGGSDGFSGITANPLLGRFSDYLIAQGGSTVLTEVPEMFGAETILMQRAANEEVFHKIVDLINDFKQYFIKHDQPVYENPSPGNKAGGISTLEDKSLGCTQKAGISPVTDVLKYGEVLKTKGLTLLSAPGNDLIASSALAAAGCQIVLFTTGRGTPFGTFVPTVKVATNTELYEAKPHWIDFNAGLLAEDDVHEEYVLREFIHYMIEVASGQLVNHEKNDFKELAIFKSGVTL” as the sequence, how does the “soluble on expression in E. coli” value read?
**A.** not soluble

**Q.** With “MQVNEEGFAIDDKEYAMKTELKFASKHSSRLKIERNVMESYSKCDAQCKEHFSELIDFGQSPVWKWIVMTIVGPSLEELKMKYKPSDIPPSTILQCGLQTMKAIHDFHQIGFLHRDIKPANYCIGYGSKSETIYVLDFGLARKYRLPNGQVRPPRPKTKMIGTPRYCSRASHRCEELGRRDDYESWFFMFIDLVDTTLIDWKGLTRPDAYAKKQELFTKLKTYEKHPMFKVISIYLDNLVYDSEVKFGVLREAITDYARGCKLTLKEPLVWFNQSTCPSPSTAPGTGASRMATNIDLKSIASDRNEENSLDRSKTGTLSFNNSKNKKPSRY” as the sequence, how does the “soluble on expression in E. coli” value read?
**A.** not soluble

**Q.** Which “soluble on expression in E. coli” value does the source give for “MENPPAEPFFLDASPGKRFCLYHSPAGDTPLNQVFIYLHPFAEEMNKSRRMAALQAKAFAAMGFGVLQIDLYGCGDSAGDFGEATWEIWKNDVEFAYQWLIQQGFTSVHFWGLRLGALLALDYAGKAETGSAKFILWQPVINGKSFLTQFLRLRLVNKLLSDDSDKAQNVHLREELRAGKSLEIAGYTLSPAMAAAIDELKLGQLVVGNSEIYWFEITPEAGRGLPPAGAAVVEAWNQSGVYPEVTLIPGLPFWATQEISECPALLAATAKLFAGIQP” here?
**A.** not soluble

**Q.** For “MADTGEKDTETTASGTDGHSKEALAVISMLHECGIQEFDPRVVSMLMDVQYAVTSKILQMSSGLSRHAEKAQIEAEDVQTAADMLGVLTTNAPDREKILQLANDKNQQPLPQIRHNYGLKLPNDRFCQLQQNFVYKADDSYQPMEMQQVTHQPHIIEPPTQVLRPEHVQNMLKRRAPDDDFDS”, which “soluble on expression in E. coli” value is on record?
**A.** not soluble

**Q.** With “GPGSMNNDKSEFYITGMTAGKLPMNNQQMVGYQRRMKIQVNKLMTEKQMTRMDAAAQGNTNTFEPFARERRRATAHVEQYPNIGHSPSGDDATTPKDVIPMLLIKKQLREFGRGRLRMPFTDTLSANVEKFTTPVGQTQVTGQPEILVTEKKLSAEGI” as the sequence, how does the “soluble on expression in E. coli” value read?
**A.** not soluble

**Q.** Which “soluble on expression in E. coli” value does the source give for “MPALKKIEQSLDHLFQIEKYGKDSAFSRFIPAVYDPIKFPWQQFFEANFVDLFNGLMMHGSENVNKVFLAVFPTDDVLETFISQSTPGDLLFMHHPLVMECGDPLGRSGRGFLPIPEKYLQGIKEKQLSIYTCHVPMDFHQTHGTSISIAKALNATVVDDFAYGGPEQEPVGLICEIDETSTEALQKHLKQLFQIPYTDFEGKRHDSIKKIAIIAGCGDVVSLMKEAEEKGAEAYITGEIHCHIDNDYGRHKYSLIMDYVKETNMSLIGVSHSASEYLVKETLMYDWFKENFDVDVILLPQEKWWLMAGDPLEHHHHHH” here?
**A.** not soluble

**Q.** With “MASRRELKKNVNYIAGELFTECLINSMFIPGTDKAKADELMAEVLRMQDEFVSRISHTEPGNVKGFYKKFRVDFNAKVNEIIEAIGKLN” as the sequence, how does the “soluble on expression in E. coli” value read?
**A.** not soluble

**Q.** Which “soluble on expression in E. coli” value does the source give for “MSKYKTILQSNKDELHSLYEIANQDSWKPIYHIHPPFGLMNDPNGVSYYNDEYHVFYQWYPFGPIHGMKHWGHVRSKDLINWERMPVAIIPTESYESHGAYSGSAIVKDGLLHLLYTGNIKKPDDSRDAKQCMASMDSQYTMTKYSNNPVIDIIPDGYTKHVRDPKVWKHNDMYYMLLGAQRENKTGTLLLYKSQDLYNWHFQGEITTNLKEFGFMWECPDYFQLSGKDVLLFSPQGIEKDGENFHNVYNVVYAIGHFDIKNLYFHVDSYYEADKGFDFYAPQTLEDSTSRRLLFAWAGSSEITYPSDDYMWAHCLTLPRELTLEDNILKQKPVSELTKLRTTKKDISGDITAGLNVLSTLDDEDSYELIVTLKTEDAKRFGLSLFHNEEECFPITFNREQGTISIDRGNFYHQFGGEYGFERCKKIDIQDTIELQIFVDKSIVEIFLYDGSTVFTSRVFPRKDMKHHIAIFSDAKLNFTITQYKLKRGIVLEHHHHHH” here?
**A.** soluble

**Q.** Which “soluble on expression in E. coli” value does the source give for “MAVQRYFVSGQAQQGGIVAISGDDAHHIARVMRMKPGDGIICVFPDGRTAVCEIEQIANEHVQARIVQWKEERSELPVRIYIAQGLPKGEKWELVIQKGTELGAAGFLPFEAARSVVKWDAKKAEKKVERWKKIAKEAAEQAERTVVPDVRAPLSFVELLAFGQTVDVRLFAYEKEARNARHAALPALLSRLRPGGALLAVFGPEGGFSPEEAEQLRQHGFSPCSLGPRILRTETAPLYLLSAASYEWELRAGGEAARGR” here?
**A.** not soluble

**Q.** With “AGQKVMITKMITDSVANPQMKQAFEQRLAKASTEDALNDIKRDIIRSAI” as the sequence, how does the “soluble on expression in E. coli” value read?
**A.** soluble

**Q.** Which “soluble on expression in E. coli” value does the source give for “MALTTRRRALTTLGAALTGAVALPAGTALASQGGHGPRPLWRAHAHNDYEHPRPLLDALDHRFGSVEADIYLVGGQLLVAHDPEDLDPSRTLESLYLDPLAARVRAHHGRVYRRDRGSLQLLIDIKTEGEATYLELDRRLRRYKNLFTSYAHGRVFPGAVTAVVSGDRAARAPMAAQRSRRAFYDGRLTDLGTVAPASFVPLISDNWTLNFTWQGVGTFPAAERRRLRDIVGAAHARGQRVRFWATPDVAGPARDAVWAELLAAGVDHLNTDDLAGIEAFLDAHRDALEHHHHHH” here?
**A.** soluble

**Q.** For “MSSRNNPARVAIVMGSKSDWATMQFAAEIFEILDVPHHVEVVSAHRTPDKLFSFAETAEENGYQVIIAGAGGAAHLPGMIAAKTLVPVLGVPVQSAALSGVDSLYSIVQMPRGIPVGTLAIGKAGAANAALLAAQILAQHDAELHQRIADWRKAQTDEVLENPDPRGTL”, which “soluble on expression in E. coli” value is on record?
**A.** not soluble

**Q.** With “LHAEGPPSVICIRLLVGLVFLSEGIQKFMYPDQLGPGRFERIGIPAATFFADLDGVVEIVCGTLVLLGLLTRVAAVPLLIDMVGAIVLTKLRALQPGGFLGVEGFWGMAHAARTDLSMLLGLIFLLWSGPGRWSLDRRLSKRATACGAR” as the sequence, how does the “soluble on expression in E. coli” value read?
**A.** not soluble

**Q.** With “MGSDKIHHHHHHSCEKDPDLSKLDNNFTVYTNYDSKTNFNDFKTYCLPDSILLIGQGMKAEFWKDENAQEIIKQVADEMDTRGYTRVKVIKNANIGLQLSFTRQTTQIIGTGGWYGGGWYNGWWGPGYWGPYWNDWYYPYPVTYSYNTGTLIMEMVNLTDHPEDTSQKVKLPVIWHSYATGLLFENSKYNMQLTLDAVNQAFDQSPYIKKS” as the sequence, how does the “soluble on expression in E. coli” value read?
**A.** not soluble

**Q.** Which “soluble on expression in E. coli” value does the source give for “MGSDKIHHHHHHVTVHGLPAPSADTALYQSIMEAGFTAFPERLANWRRFKAAQRGERLDYLPVKLDVEHVSRCNYRCTMCQVSDWPKMTRAADMTVGDFKSLLEQQIGVVEIKLQGMGEPLLAAESFFEMIRHARERHIWVRATTNGSLLHIKENYKGLVESDICEIQVSIDGARPETYEAIRRGGKFERVAENCRLLNAHAAQDGRERTRMWVVVQQGNLADLDLLPKAAAEMGFKRLTLSLDLTSWGQETWERNNEALDAHDLLPVEKAWALVEEGKRLGVEVTFWAIDSKYDWSDPAKLCPWPFERAYIASDMRVVPCCMIANPDVLDMGDARDLTGVWTGERMAEFRRAHLEGRIPEVCNSCYRDPPAP” here?
**A.** not soluble

**Q.** For “GPGSMADYLREKVLESLGISFRETQNCRRWITEVTNMIWEAQPAELRTALCWTTPLGLVVRQPYKVRKEITLFTPHGCSRIPGDAFSAASRKQLTAIAPNLIHSLDATHLAMTAIEMQNLGLSMMAVHDSYWTYACDLPVLSKVLRQQFVTLYSKYDPLWELKEQWEEAYFMDLRRHGTLLPDPPKRGDLDLSVVLDSPYFFS”, which “soluble on expression in E. coli” value is on record?
**A.** not soluble

**Q.** For “MSLAAELLIATGEYAPWTGEQLPDGGYVNRVVREAFAREGVQVRFAYMPWARALEALRNGNAQASSFWYDDPVKAKEFLYSAPISEHRELLFHRKDVTVPPWRKLRDLRGLRFGATHGYTYTAEFRQLMKQGALNVEEANDDKINLLKMLAGRIELFPLDEFTGWQLLTSDAFPRGAHDLVTTEARPFSIQYGHLLMPRSARNEQLMARFNAGLARLRADGTLERFRLDLYRGSGMGEGHHHHHH”, which “soluble on expression in E. coli” value is on record?
**A.** soluble

**Q.** With “MGSDKIHHHHHHMKAKHTDLEKLEQLYKESGNQLVVLYGRRGCQKEELIKEFCDGKKFFYYRCRQASPEHQLEMMGEEISRQYKVSLSRQTYEEYFARIKSGDPSKLVVIIDEAQFVAKRDTSFMEAVAKLKKHKLYPGPVLIILATSSTVWATQEASEQFKGAEMKLESLNFLEVVRHFESLPVAEIVRIYGAIGGVPAYLDKWDAAKSFKENICRLVLTPSGALYGEADAVISSELRELSAYSTILAAIARGENKLNDIFHATGFSRAKISVYLKNLATFNIVEKVVSFETGGWENAKKGVYQIKDTFVNFWFKFVYPNMSNLYLLSPEEFYDTYIEKELDAYLERYFREVCTEYLLILNQMGQLPFTIKRVGTWIGKTGRIDIVAQSEDRRSIIGFCNWDKPMMTMDMCENMAMAMDQARLTSDDYYLFSATDFEPALQSYVVRDPRFKLINMNEL” as the sequence, how does the “soluble on expression in E. coli” value read?
**A.** not soluble

**Q.** Which “soluble on expression in E. coli” value does the source give for “MIEPGVNYADLFAKEVRKHPKKYPKTVRLAIDRWYRWKKRKDIWFDVDRANEMMDWVESFIVHTKGDMVGKPFLLEPWEKFIYSWIYGWVKENEKGQVVRVTREAYVQIPKKNGKTLIAVGALGYAMYGEGALSVDCYACASDFAQAQYAAKPFAATILNNPVLLDGTKIFKGPKGTVSSITYDYLHGDMAYTNKFIVQTKNIDNIEGSNPYFVLNDELHKQEKMEQYDNFKSAQISLPQPLMFNISTAGKGSSSVGIRVYKEAKEVLKRDDNDSNFVLIYEPNKGYDWTDRKVWEMCNPNWGISVDLSALESAFKTAQRSAHSKAEFLTKHLDVFVNGADNFFEQDQVEPCLVPTNELGNLSGEPCWIGLDLSKSRDLTCVSLNFPTWDAEGKAILKVKQLYFIPSENIDFREKEDNVPYSELAEQGFVEFCDGKLIDQEQIFHFIEDCMDFYDVQQVNYDPAMSDRLVEKLENLGLECVQVDQYARVLNSPLEDAERLFYEQRIMFDNPLFLYCALNVVVKMDFQGRKVPSKNQSKRKIDGFVAFLCAHKETMDQMIDVNEDDMDEYLDSIYR” here?
**A.** not soluble

**Q.** Which “soluble on expression in E. coli” value does the source give for “MGKKYKNIVLLKGLEVINDYHFRMVKSLLSNDLKLNLKMREEYDKIQIADLMEEKFRGDAGLGKLIKIFEDIPTLEDLAETLKKEKLKVKGPALSRKRKKEVDATSPAPSTSSTVKTEGAEATPGAQKRKKSTKEKAGPKGSKVSEEQTQPPSPAGAGMSTAMGRSPSPKTSLSAPPNTSSTENPKTVAKCQVTPRRNVLQKRPVIVKVLSTTKPFEYETPEMEKKIMFHATVATQTQFFHVKVLNTSLKEKFNGKKIIIISDYLEYDSLLEVNEESTVSEAGPNQTFEVPNKIINRAKETLKIDILHKQASGNIVYGVFMLHKKTVNQKTTIYEIQDDRGKMDVVGTGQCHNIPCEEGDKLQLFCFRLRKKNQMSKLISEMHSFIQIKKKTNPRNNDPKSMKLPQEQSQLPNPSEASTTFPESHLRTPQMPPTTPSSSFFTKKSEDTISKMNDFMRMQILKEGSHFPGPFMTSIGPAESHPHTPQMPPSTPSSSFLTTLKPRLKTEPEEVSIEDSAQSDLKEVMVLNATESFVYEPKEQKKMFHATVATENEVFRVKVFNIDLKEKFTPKKIIAIANYVCRNGFLEVYPFTLVADVNADRNMEIPKGLIRSASVTPKINQLCSQTKGSFVNGVFEVHKKNVRGEFTYYEIQDNTGKMEVVVHGRLTTINCEEGDKLKLTCFELAPKSGNTGELRSVIHSHIKVIKTRKNKKDILNPDSSMETSPDFFF” here?
**A.** soluble
